Laboratory results taken from US20240173398A1 (MAX PLANCK GESELLSCHAFT ZUR F RDERUNG DER WISSENSCHAFTEN E V, published 2024).
Where a chain is given by its changes, count along the chain named.

B1: VHH antibody Re6A11 (VHH)
VHH: QVQLVESGGGLVQAGGSLRLSCAASGRTFSNDALGWFRQAPRKEREFVAAINWNSGTYYADSVKGRFTISRDNAKNTVYLQMNSLKPEDTAVYSCAAASDYGLPREDFLYDYWGQGTLVTVSS
B2: VHH antibody Re9F06 (VHH)
VHH: B1 VHH with L118Q
B3: VHH antibody Re9D02 (VHH)
VHH: QVQLVESGGGLVQAGGSLRLSCAASGRTFSNYAMGWFRQAPGKEREFVAAISWGGDTTYYADSLKGRFTISRDNAKNTVYLQMNSLKPEDTAVYYCAADRGLSYYYDRVTEYDYWGQGTQVTVSS
B4: VHH antibody Re9C07 (VHH)
VHH: QVQLVESGGGLVQAGGSLRLSCAASGRTFSRYAMGWFRQAPGKEREFVAAITWNADTTYYADSVKGRFTISRDNAKNTVYLQMNSLKPEDTAVYYCAAGGNHYYSRSYYSSLEYDHWGQGTQVTVSS
B5: VHH antibody Re7E02 (VHH)
VHH: QVQLVESGGGLVQAGGSLRLSCAASGFTLDYYAIGWFRQAPGKEREGVSYIRSSDGTTYYADSVKGRFTISRDNAKNTVYLQMNSLKPEDTAVYYCAADEAYYSELGWESPWGWSYWGQGTQVTVSS
B6: VHH antibody Re6B07 (VHH)
VHH: B5 VHH with A14P, Q122R
B7: VHH antibody Re9G12 (VHH)
VHH: QVQLVESGGGLVQAGGSLRLSCAASGRTFSSYVMGWFRQAPGKEREFVAHISWSGDSTYYADSVKGRFTIFRDNAKNTAYLQMNSLKPEDTAVYYCAADRGASYYYTWASEYNYWGQGTQVTVSS
B8: VHH antibody Re11H04 (VHH)
VHH: QVQLVESGGGLVQPGGSLRLSCAASGFTLDYYTIAWFRQAPGKEREGVSCISGNDGSTYYADSVKGRFTISRDNAKNTVYLQMNSLKPEDTAVYYCAADRGESYYPFRPSEYHYWGQGTQVTVSS

Biological target: SARS-CoV-2 RBD (correctly folded, co-expressed with fold-promoting VHH in E. coli) (SARS-CoV-2, UniProt P0DTC2 330-527)
Experiment: co-expression in E. coli, co-purification and gel filtration

Binder	binding result
B1	binds
B2	binds
B3	binds
B4	binds
B5	binds
B6	binds
B7	binds
B8	binds
